One molecule from patent US20210332112A1 (University of Texas, published 2021) can be followed below.

By EC50 (read off the curve) is commonly meant the concentration at which the effect is half-maximal. Higher therefore signals a need for much substance.

The target of the experiment is pertussis toxin (Bordetella pertussis, UniProt P04977 35-269; P04978 28-226; P04979 29-227; P0A3R5 43-152; P04981 35-133). The experiment in a line: ELISA, plate coated with pertussis toxin, antibody titrated, detection with goat anti-human kappa constant domain-HRP [panel C]. (In general: An ELISA detects its analyte on a solid surface through an enzyme-linked reagent.)

B1: hu1B7 antibody (antibody, V domains shown)
VH: EVQLVESGGGLVQPGGSLRLSCAASGYKFTSYWMHWVRQAPGKGLEWVGNIFPGSGSTNYDEKFNSRFTISVDTSKNTAYLQMNSLRAEDTAVYYCTRWLSGAYFDYWGQGTLVTVSS
VL: DIQMTQSPSSLSASVGDRVTITCSASSSVSFMYWYQQKPGKAPKLLIYLTSNLPSGVPSRFSGFGSGTDYTLTISSLQPEDFATYYCQQWSSHPPTFGQGTKVEIK
In the case of B1, the concentration giving a half-maximal response (EC50 (read off the curve)) was about 0.05 mg/L.
